Laboratory results: the supplement of paper PMC10126150
± gives the standard deviation of the averaged measurements.

System: ATP
Assay: switch fluorescence ratio, 500 uM ATP over buffer (Cy3 cluster intensity, sum of 5 cycles each) (fold (ratio)); higher = stronger signal-on switching upon ATP binding; sequences stand for … in TCGTCGGCAGCGTCAGATGTGTATAAGAGACAGTTTTTTTTTTTTTTTTTTTTTTTTT…TC
Details: aptamer strand: ATP DNA aptamer (quencher-CACCTGGGGGAGTATTGCGGAGGAAGG + anchor), 100 nM annealed; ATP concentration: 500 uM
Outline: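 The quencher-labelled ATP aptamer, at 100 nM, was annealed to Cy3-labelled switching-strand clusters on a modified Illumina MiSeq flow-cell. The clusters were imaged in selection buffer, then after 15 min with 500 uM ATP at 22 °C, and this buffer/ATP cycle ran five times with NaOH stripping and re-annealing between runs. Per-cluster fluorescence ratios, summed target-cycle over summed buffer-cycle Cy3 intensity, were averaged per switch-domain sequence. Clusters outside 100-1000 RFU were excluded.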
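Also: ATP exposure 15 min at 22 °C before imaging.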

| Sequence | switch fluorescence ratio |
| --- | --- |
| GAGGGCGGAC | 1.05 ± 0.19 |
| GTTGTTGGGG | 0.974 ± 0.043 |
| GAGTAAGGGG | 0.969 ± 0.025 |
| ATAAGCGATT | 1.03 ± 0.024 |
| TGAGGCAGCT | 1.06 ± 0.11 |
| GCACGGGGGA | 0.9884 ± 0.0077 |
| TCTTAGTTCG | 1.008 ± 0.01 |
| GATTGGGTGA | 0.972 ± 0.011 |
| CGGTTTTCAT | 0.984 ± 0.019 |
| TTGAAGGTCT | 1 ± 0.05 |
| AGGGCCTGGG | 0.999 ± 0.04 |
| TCTTCGGGAA | 1.09 ± 0.06 |
| ACCAATTGAA | 1.01 ± 0.05 |
| CCCTTAGTGC | 1.14 ± 0.022 |
| AGCCGAATTT | 0.997 ± 0.019 |
| AGGGTAGTTT | 0.985 ± 0.045 |
| TCGGGGAGCG | 0.949 ± 0.042 |
| ATAATTCGTA | 0.96 ± 0.024 |
| CGGTGACTTG | 1.01 ± 0.017 |
| TATGTTACCT | 1.22 ± 0.05 |
| ACTGAGGAT | 0.9994 ± 0.003 |
| AGTTAACTGT | 0.996 ± 0.032 |
| TATACGACTT | 1.03 ± 0.029 |

| Sequence | switch fluorescence ratio |
| --- | --- |
| GAGGATGGGG | 0.977 ± 0.039 |
| TGTTTAAGAC | 1.05 ± 0.092 |
| TTAAGCTAGG | 1.004 ± 0.0054 |
| AGGTTCTTTG | 0.974 ± 0.026 |
| TGTCACAGGG | 1.063 ± 0.007 |
| GGGAATATTT | 0.995 ± 0.0097 |
| GAGGCTTGTT | 0.981 ± 0.01 |
| AAAAATGGGC | 1.035 ± 0.005 |
| GAGGGTTGTG | 0.969 ± 0.031 |
| AAAGGGTGCG | 1.03 ± 0.017 |
| TGCACGGTTG | 1.002 ± 0.0026 |
| CAAGTAGGTC | 0.98 ± 0.061 |
| TTGGGGTCAG | 1 ± 0.038 |
| TTGAAACTTG | 0.952 ± 0.018 |
| GTTATTGCTC | 1.12 ± 0.19 |
| TGCACGCAGC | 1.25 ± 0.09 |
| ATCGATTTCG | 0.975 ± 0.017 |
| GGTGTTCGCA | 1.02 ± 0.014 |
| GGCTTTTGCT | 0.9978 ± 0.0038 |
| GCTAGTTTTT | 1 ± 0.022 |
| GGTGTTACTG | 1.03 ± 0.048 |
| TCAAGGGGAG | 1.06 ± 0.067 |
| AGATAGGCGT | 0.9959 ± 0.0056 |

| Sequence | switch fluorescence ratio |
| --- | --- |
| ATCAGAATAC | 1.74 ± 0.43 |
| TCAAATCCTG | 1.05 ± 0.047 |
| ATCATTTGGC | 0.981 ± 0.068 |
| TTCGTATGTT | 1.03 ± 0.05 |
| TATGAGGATG | 1.01 ± 0.031 |
| ATATGTAGAG | 1.05 ± 0.046 |
| TACTATTATC | 1.0537 ± 0.00026 |
| TGAGGGGATT | 1 ± 0.022 |
| GCAGGGGCCC | 1.02 ± 0.027 |
| TTAGGATAGG | 1.005 ± 0.0021 |
| ATGTAGAGAT | 0.97 ± 0.016 |
| GACAGCCTTA | 1.01 ± 0.0069 |
| GAGCTTAGGA | 0.988 ± 0.013 |
| AAATTCGGTG | 0.999 ± 0.016 |
| TGGGTCTTGA | 1.001 ± 0.0062 |
| CAACCGTTTC | 1.27 ± 0.028 |
| TCTTTAAAGG | 1.04 ± 0.039 |
| TGGCCGGGGG | 1 ± 0.02 |
| TTTTATTGTG | 1 ± 0.027 |
| TGGCTATGCG | 0.969 ± 0.029 |
| ATCATGTGGC | 0.989 ± 0.025 |
| GGGATATTGG | 0.992 ± 0.013 |
| TTTCTAAGTT | 1.03 ± 0.021 |

| Sequence | switch fluorescence ratio |
| --- | --- |
| GCTCAAATGG | 1.04 ± 0.013 |
| TAACAATTTT | 1.01 ± 0.019 |
| CTGGAGGGGA | 1.04 ± 0.034 |
| GTGGTTGCGG | 0.987 ± 0.04 |
| GGGTTTTGGC | 1 ± 0.066 |
| ATATGTCGGT | 0.963 ± 0.013 |
| TAAAGAGATG | 1.011 ± 0.0072 |
| AGAACGGTGG | 0.9693 ± 0.0096 |
| AAAGGAGGGT | 0.9994 ± 0.0062 |
| TGATTGCCCT | 0.9925 ± 0.0044 |
| AGTTGAATT | 1.03 ± 0.046 |
| AGGGGACTGT | 1.01 ± 0.047 |
| CTAAGCAGGG | 1.01 ± 0.016 |
| GCTGTGTTGG | 1.02 ± 0.013 |
| TTGTGGGG | 0.992 ± 0.021 |
| AAGAAGAGGG | 1.02 ± 0.021 |
| TCTTAATTG | 0.98356 ± 0.00079 |
| GGGGGAAGAA | 1 ± 0.028 |
| TTGGGCTGCT | 0.9743 ± 0.00051 |
| TTTAGTTAAG | 0.945 ± 0.038 |
| CGGGGATGTG | 1.02 ± 0.025 |
| TTTTGGCAGA | 0.982 ± 0.047 |
| GCTGGAACCG | 1.08 ± 0.022 |

| Sequence | switch fluorescence ratio |
| --- | --- |
| TCAACTTTTG | 0.9856 ± 0.0022 |
| AACTACTGTG | 1.03 ± 0.056 |
| AAAGGCCGTG | 1.0223 ± 0.00097 |
| TTGCCTGCAT | 1.011 ± 0.0092 |
| CCTATAGAGT | 0.964 ± 0.02 |
| TGTGGAGAAG | 0.974 ± 0.025 |
| AGTCTAAATT | 1.02 ± 0.011 |
| TTTTGGTGTG | 1.01 ± 0.026 |
| ACTATAATCA | 1.04 ± 0.026 |
| GTAACATGGG | 0.973 ± 0.021 |
| ATCTATCGGA | 1.0073 ± 0.00071 |
| GAGTGAGTTA | 0.977 ± 0.032 |
| TTTAGCCCTT | 1.01 ± 0.037 |
| TAAGATATTT | 0.9715 ± 0.0094 |
| TTAAGAATTG | 1.04 ± 0.12 |
| ATTCGCTTTT | 1 ± 0.042 |
| AAGTTTGAAT | 0.978 ± 0.013 |
| TGGGGTTACT | 1.01 ± 0.015 |
| AGGGGTTGTA | 0.971 ± 0.02 |
| CCATGTGTTG | 1.03 ± 0.043 |
| CACCTGCCCC | 1.347 ± 0.011 |
| CGGCTCTTAG | 0.99 ± 0.011 |
| TGGTGATTGT | 1.02 ± 0.017 |

| Sequence | switch fluorescence ratio |
| --- | --- |
| AGCTATGTGG | 0.9812 ± 0.0064 |
| GACATGAGTT | 0.984 ± 0.026 |
| AAGGTCGTTT | 0.9768 ± 0.003 |
| TTTCGTAGGA | 1.28 ± 0.35 |
| ACCTACTGAG | 1.351 ± 0.0076 |
| CTAGGGGATA | 1.02 ± 0.014 |
| TTTGGGTTGC | 0.982 ± 0.014 |
| ATTGATTGTG | 0.983 ± 0.026 |
| GGGGCTTAAA | 1.04 ± 0.047 |
| CGGGGGTCGT | 0.98794 ± 0.00054 |
| GAACTTGGCG | 1.01 ± 0.041 |
| GCAAGAGTGG | 1 ± 0.034 |
| GGTCAGCCGG | 1.02 ± 0.012 |
| GCCGCGCGCT | 1 ± 0.082 |
| ACTCATTTTA | 1.02 ± 0.024 |
| TAATTATATT | 0.988 ± 0.023 |
| TATTGTGAGT | 0.996 ± 0.057 |
| TATATTTGGT | 0.996 ± 0.039 |
| GAGTGTAAGT | 0.979 ± 0.01 |
| TACCCAGGGA | 1.64 ± 0.13 |
| ATGATGTGAG | 1.01 ± 0.051 |
| TGTGAGGGA | 1 ± 0.029 |
| TCAGAGGGAA | 1.07 ± 0.1 |

| Sequence | switch fluorescence ratio |
| --- | --- |
| AGGGGAATG | 1 ± 0.022 |
| GGGGTTAACG | 0.996 ± 0.031 |
| TAGTAGCTTT | 1.2 ± 0.31 |
| GGCGAGAGGG | 0.979 ± 0.042 |
| GACTATGACC | 1.05 ± 0.013 |
| GGCGGATATG | 1.009 ± 0.0097 |
| TGTGATGTCA | 1.01 ± 0.016 |
| TTCGAGCTTC | 1.07 ± 0.034 |
| GGACGTGGGG | 0.953 ± 0.069 |
| AGGTAGGTCC | 0.998 ± 0.022 |
| TGTTTTTTTG | 0.983 ± 0.041 |
| ATCGGGGGAC | 0.959 ± 0.021 |
| AGCTTGGGCA | 1.02 ± 0.0095 |
| GGGGAAAGCA | 1 ± 0.015 |
| CAAGGCATTC | 1.32 ± 0.059 |
| TTGGAGGGGT | 1.09 ± 0.15 |
| GGGCTCAACT | 0.9946 ± 0.0053 |
| GATAAAATGC | 1.02 ± 0.044 |
| AGGTGTGGGT | 1.01 ± 0.037 |
